These results are taken from publication PMC4457943.

Assay in all cases: FRET or BRET
A general note: Bioluminescence resonance energy transfer reports proximity on the nanometre scale.

In assay [1] the target is MHC class I heavy chain (human (endogenous in Kit225/IL-9R and MT-2)) (UniProt P04439).
Assay [2] deals with MHC class II glycoprotein (HLA-DR) (human (endogenous in Kit225/IL-9R and MT-2)).
Assay [3] addresses MHC class I heavy chain (human (endogenous in Kit225/IL-9R and MT-2)) (UniProt P04439). This is another data set of the same source.
Assay [4] concerns the target MHC class II glycoprotein (HLA-DR) (human (endogenous in Kit225/IL-9R and MT-2)). This is another data set of the same source.

Read-outs that look alike come from different tables or passages of the source.

On to “IL-2 receptor α chain (IL-2Rα) (from UniProt P01589 22-272)”, for which the FRET efficiency E (%) was 22.5% in assay [1], 11.9% in assay [2], 21.7% in assay [3] and 21.9% in assay [4].

B1: interleukin-9 receptor α-subunit (IL-9Rα), stably transfected in Kit225/IL-9R cells (receptor)
chain: SVTGEGQGPRSRTFTCLTNNILRIDCHWSAPELGQGSSPWLLFTSNQAPGGTHKCILRGSECTVVLPPEAVLVPSDNFTITFHHCMSGREQVSLVDPEYLPRRHVKLDPPSDLQSNISSGHCILTWSISPALEPMTTLLSYELAFKKQEEAWEQAQHRDHIVGVTWLILEAFELDPGFIHEARLRVQMATLEDDVVEEERYTGQWSEWSQPVCFQAPQRQGPLIPPWGWPGNTLVAVSIFLLLTGPTYLLFKLSPRVKRIFYQNVPSPAMFFQPLYSVHNGNFQTWMGAHGAGVLLSQDCAGTPQGALEPCVQEATALLTCGPARPWKSVALEEEQEGPGTRLPGNLSSEDVLPAGCTEWRVQTLAYLPQEDWAPTSLTRPAPPDSEGSRSSSSSSSSNNNNYCALGCYGGWHLSALPGNTQSSGPIPALACGLSCDHQGLETQQGVAWVLAGHCQRPGLHEDLQGMLLPSVLSKARSWTF
Turning to B1, the FRET efficiency E (%) in assay [3] was 17.2%; in assay [4], 15.9%.

B2: interleukin-9 receptor α-subunit (IL-9Rα), endogenous in MT-2 cells (receptor)
chain: B1 chain
B2: the FRET efficiency E (%) in assay [3] was found to be 13.5%; in assay [4] it was 10.2%.
